This passage reports stoichiometry N results from paper PMC12803839.

For this experiment, the target named is pyruvate kinase M2 (human (endogenous in HK-2)) (UniProt P14618). The experiment in a line: cross-linking; proteins of HK-2 cells treated with vehicle or compound 3k; DSS 1 mM, room temperature, 30 min, quenched with 20 mM Tris; SDS-PAGE and Western blot for PKM2; more monomer and less dimer and tetramer with compound 3k.

Sequence of pyruvate kinase M2, P14618 1-531 (natural protein; other documents disagree on this pair) (P14618 whole entry): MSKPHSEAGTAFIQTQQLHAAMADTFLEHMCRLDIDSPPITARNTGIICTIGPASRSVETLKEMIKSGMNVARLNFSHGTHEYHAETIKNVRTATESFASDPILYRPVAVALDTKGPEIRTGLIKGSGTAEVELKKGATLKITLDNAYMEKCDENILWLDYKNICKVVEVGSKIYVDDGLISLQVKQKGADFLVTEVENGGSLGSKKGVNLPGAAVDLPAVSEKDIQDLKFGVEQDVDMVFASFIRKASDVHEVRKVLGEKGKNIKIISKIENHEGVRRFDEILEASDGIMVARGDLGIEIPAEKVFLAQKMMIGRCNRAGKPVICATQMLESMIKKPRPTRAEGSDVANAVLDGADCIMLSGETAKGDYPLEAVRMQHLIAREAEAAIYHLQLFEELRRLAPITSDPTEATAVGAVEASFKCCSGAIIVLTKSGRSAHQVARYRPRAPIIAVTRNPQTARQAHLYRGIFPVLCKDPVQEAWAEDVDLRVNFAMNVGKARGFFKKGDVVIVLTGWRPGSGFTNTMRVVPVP

As to “pyruvate kinase M2, P14618 1-531 (natural protein; other documents disagree on this pair)”, the stoichiometry N is 2.
